T1: SPRTN 200-250 (Homo sapiens, UniProt Q9H040 200-250)
T1 sequence: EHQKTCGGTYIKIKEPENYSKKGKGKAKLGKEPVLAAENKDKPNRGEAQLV

T2: SPRTN 1-199 (Homo sapiens, UniProt Q9H040 1-199)
T2 sequence: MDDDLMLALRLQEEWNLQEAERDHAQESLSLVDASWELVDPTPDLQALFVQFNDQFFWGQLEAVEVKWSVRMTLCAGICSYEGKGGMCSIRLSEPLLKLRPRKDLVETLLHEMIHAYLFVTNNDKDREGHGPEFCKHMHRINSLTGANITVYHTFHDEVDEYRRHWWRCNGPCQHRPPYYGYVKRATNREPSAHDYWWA

T3: SPRTN 247-489 (Homo sapiens, UniProt Q9H040 247-489)
T3 sequence: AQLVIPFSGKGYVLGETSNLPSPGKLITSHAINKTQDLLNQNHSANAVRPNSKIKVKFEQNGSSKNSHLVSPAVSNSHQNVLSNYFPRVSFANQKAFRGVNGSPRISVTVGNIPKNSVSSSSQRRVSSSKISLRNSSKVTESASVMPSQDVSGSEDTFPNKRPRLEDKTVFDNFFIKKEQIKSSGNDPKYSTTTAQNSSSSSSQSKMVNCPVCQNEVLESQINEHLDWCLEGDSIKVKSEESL

T4: SPRTN WT (Homo sapiens, UniProt Q9H040 1-489)
T4 sequence: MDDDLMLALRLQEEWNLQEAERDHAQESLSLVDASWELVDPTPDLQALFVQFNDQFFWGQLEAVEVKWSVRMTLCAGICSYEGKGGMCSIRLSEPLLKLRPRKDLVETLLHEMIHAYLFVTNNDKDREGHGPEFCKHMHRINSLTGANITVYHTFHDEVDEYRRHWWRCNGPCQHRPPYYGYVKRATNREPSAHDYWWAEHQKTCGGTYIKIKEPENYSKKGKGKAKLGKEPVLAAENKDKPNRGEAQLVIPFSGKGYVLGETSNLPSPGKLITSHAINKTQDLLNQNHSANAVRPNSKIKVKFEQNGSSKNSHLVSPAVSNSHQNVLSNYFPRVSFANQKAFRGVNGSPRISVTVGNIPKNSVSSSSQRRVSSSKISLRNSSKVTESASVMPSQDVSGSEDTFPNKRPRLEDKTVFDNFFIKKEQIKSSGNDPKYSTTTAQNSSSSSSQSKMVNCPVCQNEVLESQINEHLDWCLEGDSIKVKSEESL

T5: SPRTN-EQ (Homo sapiens, UniProt Q9H040 1-489, E112Q)
T5 sequence: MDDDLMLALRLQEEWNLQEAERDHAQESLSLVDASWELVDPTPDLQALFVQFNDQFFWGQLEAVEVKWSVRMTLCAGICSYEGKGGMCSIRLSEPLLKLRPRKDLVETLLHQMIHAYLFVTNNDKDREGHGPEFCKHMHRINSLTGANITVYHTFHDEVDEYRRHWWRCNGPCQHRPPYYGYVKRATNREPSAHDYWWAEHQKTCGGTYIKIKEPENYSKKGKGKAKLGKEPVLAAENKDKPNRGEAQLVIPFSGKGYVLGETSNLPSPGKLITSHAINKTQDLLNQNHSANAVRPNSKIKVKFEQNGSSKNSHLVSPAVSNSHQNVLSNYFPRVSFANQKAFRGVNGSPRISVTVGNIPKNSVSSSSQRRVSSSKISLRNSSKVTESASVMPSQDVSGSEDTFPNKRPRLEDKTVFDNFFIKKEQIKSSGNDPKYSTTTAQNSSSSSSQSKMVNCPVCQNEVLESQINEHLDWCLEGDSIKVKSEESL


Experiments:
SPRTN 200-250 = target: T1, SPRTN 200-250; assay: EMSA; 250 nM DNA, 0.25-1 uM protein; Oligo EMSA: protein in 250 mM NaCl, 50 mM HEPES pH 7.5, 10% glycerol mixed 1:1 with DNA in 0.2 mg/ml BSA, 15 uM (so in the source) HEPES pH 7.5; 20 min on ice; 6% PAGE. Phage DNA: 0.8% agarose, 4 C; conditions: protein: recombinant; tags: GST; label: 5' Alexa488
SPRTN 1-199 = target: T2, SPRTN 1-199; assay: as above; conditions: protein: recombinant; tags: N-terminal GST, C-terminal Strep; label: 5' Alexa488
SPRTN 247-489 = target: T3, SPRTN 247-489; assay: EMSA; 250 nM DNA, 0.5-1 uM protein; Oligo EMSA: protein in 250 mM NaCl, 50 mM HEPES pH 7.5, 10% glycerol mixed 1:1 with DNA in 0.2 mg/ml BSA, 15 uM (so in the source) HEPES pH 7.5; 20 min on ice; 6% PAGE. Phage DNA: 0.8% agarose, 4 C; conditions: protein: recombinant; label: 5' Alexa488
SPRTN WT = target: T4, SPRTN WT; assay: as above; conditions: protein: recombinant; tags: N-terminal GST, C-terminal Strep; label: 5' Alexa488
SPRTN-EQ = target: T5, SPRTN-EQ; assay: SAXS; 1:1.2 protein:DNA; Rg +8-10 A, Dmax +30 A; 50 mM HEPES pH 7.5, 75 mM KCl, 1% glycerol; Oligo EMSA: protein in 250 mM NaCl, 50 mM HEPES pH 7.5, 10% glycerol mixed 1:1 with DNA in 0.2 mg/ml BSA, 15 uM (so in the source) HEPES pH 7.5; 20 min on ice; 6% PAGE. Phage DNA: 0.8% agarose, 4 C; conditions: protein: recombinant; tags: N-terminal GST, C-terminal Strep

Binder | binding result (SPRTN 200-250) | binding result (SPRTN 1-199) | binding result (SPRTN 247-489) | binding result (SPRTN WT) | binding result (SPRTN-EQ)
ACGCTGCCGAATTCTACCAGTGCCTTGCTA (ssDNA) [Alexa488 30-mer ss oligonucleotide] | binds | no binding | no binding | binds | 
ACGCTGCCGAATTCT (ssDNA) [15-mer ssDNA] |  |  |  |  | binds

— paper PMC5128726, “Mechanism and Regulation of DNA-Protein Crosslink Repair by the DNA-Dependent Metalloprotease SPRTN”
